In this assay the target is CP-431C/mCherrySP141(C140A) P22 procapsid (bacteriophage P22) (UniProt P26747). Put plainly: pelleting by ultracentrifugation and resuspension.

The text below walks through data of paper PMC3882140.

With “CP-431C/mCherrySP141(C140A) P22 procapsid (from UniProt P26747 1-430; P26748 141-303) (complex)”, the soluble capsid recovered after pelleting, relative to wtCP/mCherrySP141(C140A) came to 3%.
